In US8013137B2, “Modified enteropeptidase protein” (National University Corporation Hokkaido University, priority 2006, dated 2011):
Residue numbers refer to the chain shown, from its start. Names and notes keep the numbering of the source.

How the values were obtained:
[1] = substrate: Cc1cc(=O)oc2cc(NC(=O)[C@H](CCCNC(=N)N)NC(=O)[C@H](Cc3ccccc3)NC(=O)[C@@H]3CCCN3)ccc12; experiment: purified protein, by the assay type
Protocol: (§1) Expression of the recombinant Medaka EP catalytic domain in the Escherichia coli expression system was carried out as described previously (Ogiwara et al., Proc. Natl. Acad. Sci. USA, 102:8442-8447 (2005)). The Medaka EP catalytic domain was produced as a fusion protein with an extra amino acid sequence of 50 residues at its N-terminus; the vector-derived N-terminal stretch contained a His-tag and an S-protein sequence. Harvested cells were lysed and the insoluble materials were dissolved in a solubilization buffer containing 6 M urea, 50 mM Tris.HCl (pH 7.6), and 0.5 M NaCl. […] Eluted recombinant proteins were renatured by dialysis against 50 mM Tris.HCl (pH 8.0). The fusion protein was then incubated in 50 mM Tris.HCl (pH 8.0) containing 0.5 M NaCl with trypsin immobilized on Sepharose 4B at room temperature for 1 h. The immobilized trypsin was then removed by filtration.
(§2) Site-directed mutagenesis of Medaka EP-1 was carried out to produce various mutant proteases. […] The subsequent procedures for preparation of mutant proteases were the same as for the wild-type protein described above. The active recombinant protein concentrations were determined using the active site titrant p-nitrophenyl-p′-guanidinobenzoate HCl (Sigma) using the method described previously (Chase et al., Biochem. Biophys. Res. Commun., 29:508-514 (1976)).
(§3) Enzyme activity for various 4-methylcoumaryl-7-amide (MCA)-containing peptide substrates was determined by the method of Barrett (Barrett et al., J., Biochem. J., 187:909-912 (1980)). For kinetic studies, initial velocities, extrapolated from the plot of product versus time, were transformed into double-reciprocal plots (Lineweaver et al., J. Am. Chem. Soc., 56:658-663 (1934)). The maximum velocities (Vmax) and Km and kcat values were obtained from the intercepts of these plots.

[2] = substrate: Cc1cc(=O)oc2cc(NC(=O)[C@H](CCCNC(=N)N)NC(=O)[C@H](C)NC(=O)[C@H](CCC(=O)OCc3ccccc3)NC(=O)OC(C)(C)C)ccc12; experiment: purified protein, by the assay type
Protocol: as §1, §2, §3

[3] = substrate: Cc1cc(=O)oc2cc(NC(=O)[C@H](CCCNC(=N)N)NC(=O)[C@H](Cc3ccccc3)NC(=O)OCc3ccccc3)ccc12; experiment: purified protein, by the assay type
Protocol: as §1, §2, §3

[4] = substrate: Cc1cc(=O)oc2cc(NC(=O)[C@H](CCCNC(=N)N)NC(=O)[C@H](Cc3ccccc3)NC(=O)[C@@H]3CCCN3)ccc12; experiment: Kinetic parameters for MCA-containing peptide substrates, porcine EP; format: biochemical; conditions: other: Porcine
[5] = substrate: Cc1cc(=O)oc2cc(NC(=O)[C@H](CCCNC(=N)N)NC(=O)[C@H](C)NC(=O)[C@H](CCC(=O)OCc3ccccc3)NC(=O)OC(C)(C)C)ccc12; experiment: as above; format: biochemical; conditions: other: Porcine
[6] = substrate: Cc1cc(=O)oc2cc(NC(=O)[C@H](CCCNC(=N)N)NC(=O)[C@H](Cc3ccccc3)NC(=O)OCc3ccccc3)ccc12; experiment: as above; format: biochemical; conditions: other: Porcine
[7] = substrate: Cc1cc(=O)oc2cc(NC(=O)[C@H](CCCNC(=N)N)NC(=O)[C@H](Cc3ccccc3)NC(=O)[C@@H]3CCCN3)ccc12; experiment: Kinetic parameters for MCA-containing peptide substrates, EP-1(WT); format: biochemical, Japanese Medaka (Oryzias latipes); conditions: other: EP-1(WT)
[8] = substrate: Cc1cc(=O)oc2cc(NC(=O)[C@H](CCCNC(=N)N)NC(=O)[C@H](C)NC(=O)[C@H](CCC(=O)OCc3ccccc3)NC(=O)OC(C)(C)C)ccc12; experiment: as above; format: biochemical, Japanese Medaka (Oryzias latipes); conditions: other: EP-1(WT)
[9] = substrate: Cc1cc(=O)oc2cc(NC(=O)[C@H](CCCNC(=N)N)NC(=O)[C@H](Cc3ccccc3)NC(=O)OCc3ccccc3)ccc12; experiment: as above; format: biochemical, Japanese Medaka (Oryzias latipes); conditions: other: EP-1(WT)

B1: medaka EP-1 enteropeptidase serine protease domain (parent SEQ ID NO: 2), variant P193E (Oryzias latipes; P970E) (protein)
chain: CGQRQVYNSKENNGVPRVVGGVNAEKGAWPWMVSLHWRGRHGCGASLIGRDWLLTAAHCVYGKNTHLQYWSAVLGLHAQSSMNSQEVQIRQVDRIIINKNYNRRTKEADIAMMHLQQPVNFTEWVLPVCLASEDQHFPAGRRCFIAGWGRDAEGGSLPDILQEAEVPLVDQDECQRLLPEYTFTSSMLCAGYEEGGVDSCQGDSGGPLMCLEDARWTLIGVTSFGVGCGRPERPGAYARVSAFTSWIAETRRSSFSDLD
Km ([1]; other: P193E): 1000 µM | kcat ([1]; other: P193E): 0.45 s⁻¹ | kcat/Km ([1]; other: P193E): 450 M⁻¹ s⁻¹ | Km ([2]; other: P193E): 200 µM | kcat ([2]; other: P193E): 0.0383 s⁻¹ | kcat/Km ([2]; other: P193E): 200 M⁻¹ s⁻¹ | Km ([3]; other: P193E): 200 µM | kcat ([3]; other: P193E): 0.0283 s⁻¹ | kcat/Km ([3]; other: P193E): 150 M⁻¹ s⁻¹

B2: medaka EP-1 enteropeptidase serine protease domain (parent SEQ ID NO: 2), variant K63R (Oryzias latipes; K840R) (protein)
chain: B1 chain with K63R, E193P
Km ([1]; other: K63R): 1100 µM | kcat ([1]; other: K63R): 0.183 s⁻¹ | kcat/Km ([1]; other: K63R): 167 M⁻¹ s⁻¹ | Km ([2]; other: K63R): 1200 µM | kcat ([2]; other: K63R): 0.2 s⁻¹ | kcat/Km ([2]; other: K63R): 167 M⁻¹ s⁻¹ | Km ([3]; other: K63R): 100 µM | kcat ([3]; other: K63R): 0.0233 s⁻¹ | kcat/Km ([3]; other: K63R): 233 M⁻¹ s⁻¹

B3: porcine EP serine protease domain (Ile800 to His1034) (Sus scrofa) (protein)
chain: IVGGNDSREGAWPWVVALYYNGQLLCGASLVSRDWLVSAAHCVYGRNLEPSKWKAILGLHMTSNLTSPQIVTRLIDEIVINPHYNRRRKDSDIAMMHLEFKVNYTDYIQPICLPEENQVFPPGRICSIAGWGKVIYQGSPADILQEADVPLLSNEKCQQQMPEYNITENMMCAGYEEGGIDSCQGDSGGPLMCLENNRWLLAGVTSFGYQCALPNRPGVYARVPKFTEWIQSFLH
Km [4]: 3900 µM | kcat [4]: 5 s⁻¹ | kcat/Km [4]: 1280 M⁻¹ s⁻¹ | Km [5]: 300 µM | kcat [5]: 1.83 s⁻¹ | kcat/Km [5]: 6170 M⁻¹ s⁻¹ | Km [6]: 200 µM | kcat [6]: 0.917 s⁻¹ | kcat/Km [6]: 4670 M⁻¹ s⁻¹

B4: medaka EP-1 enteropeptidase serine protease domain (parent SEQ ID NO: 2), variant T105E (Oryzias latipes; T882E) (protein)
chain: VVGGVNAEKGAWPWMVSLHWRGRHGCGASLIGRDWLLTAAHCVYGKNTHLQYWSAVLGLHAQSSMNSQEVQIRQVDRIIINKNYNRREKEADIAMMHLQQPVNFTEWVLPVCLASEDQHFPAGRRCFIAGWGRDAEGGSLPDILQEAEVPLVDQDECQRLLPEYTFTSSMLCAGYPEGGVDSCQGDSGGPLMCLEDARWTLIGVTSFGVGCGRPERPGAYARVSAFTSWIAETRRSSFSDLD
Km ([1]; other: T105E): 1300 µM | kcat ([1]; other: T105E): 0.267 s⁻¹ | kcat/Km ([1]; other: T105E): 200 M⁻¹ s⁻¹ | Km ([2]; other: T105E): 1300 µM | kcat ([2]; other: T105E): 0.183 s⁻¹ | kcat/Km ([2]; other: T105E): 150 M⁻¹ s⁻¹ | Km ([3]; other: T105E): 100 µM | kcat ([3]; other: T105E): 0.0333 s⁻¹ | kcat/Km ([3]; other: T105E): 333 M⁻¹ s⁻¹

B5: medaka EP-1 enteropeptidase serine protease domain (parent SEQ ID NO: 2), variant E173A, SEQ ID NO: 4 (Oryzias latipes; E950A) (protein)
chain: B4 chain with E88T, E156A
Km ([1]; other: E173A): 1000 µM | kcat ([1]; other: E173A): 0.153 s⁻¹ | kcat/Km ([1]; other: E173A): 150 M⁻¹ s⁻¹ | Km ([2]; other: E173A): 1000 µM | kcat ([2]; other: E173A): 0.167 s⁻¹ | kcat/Km ([2]; other: E173A): 167 M⁻¹ s⁻¹ | Km ([3]; other: E173A): 400 µM | kcat ([3]; other: E173A): 0.0383 s⁻¹ | kcat/Km ([3]; other: E173A): 100 M⁻¹ s⁻¹

B6: medaka EP-1 enteropeptidase serine protease domain, wild type, SEQ ID NO: 2 (Oryzias latipes) (protein)
chain: B4 chain with E88T
Km [7]: 10000 µM | kcat [7]: 2.33 s⁻¹ | kcat/Km [7]: 233 M⁻¹ s⁻¹ | Km [8]: 200 µM | kcat [8]: 0.112 s⁻¹ | kcat/Km [8]: 567 M⁻¹ s⁻¹ | Km [9]: 100 µM | kcat [9]: 0.0483 s⁻¹ | kcat/Km [9]: 483 M⁻¹ s⁻¹
